Test results reported in paper PMC8764033, “Single-molecule analysis of specificity and multivalency in binding of short linear substrate motifs to the APC/C” (Nature Communications, 2022).

Assays:
APC/C [1] = conditions: purified yeast components, 30 min; 20 (Mizrak & Morgan, 2019); cited from earlier work
Excerpt: It is therefore unlikely that activator dissociation is occurring during our measurements of substrate dissociation from APC/C^Cdh1 or APC/C^Cdc20. || page 6: Cdh1 in Supplementary Figure 6. 2. Fig. 1b. List human peptide sequences used in this study. Now added to Supplementary Figure 6. 3. APC/C-Cdh1 interaction stability and life-time. The SMOR assay is dependent on a stable APC/C-Cdh1 interaction, longer than the dwell times of APC/C-activator-substrate complexes. Can the authors measure the dwell time of APC/C bound to activator? Excellent point.

[2] = Aggregation / background fluorescence in SMOR assay; format: physicochemical
Procedure: To capture dynamic protein–protein interactions, dye-labeled substrate diluted in buffer C + BSA was added to the chamber containing immobilized proteins. Interactions were imaged by TIRF microscopy as described below. For optimal signal-to-noise ratio, peptide concentration was no greater than 1 nM. Protein substrates included Hsl1 aa 667–872 and a C-terminal HaloTag followed by a TAP tag, and were produced by translation in rabbit reticulocyte lysates using TnT Quick Coupled Transcription/Translation System (Promega) (see Supplementary Table 5 for plasmids). Protein was purified with magnetic IgG beads and labeled on the bead with JF549 or JF646 dye so that unbound dye could be washed away. Purified dye-labeled protein was then cleaved from the beads using TEV protease. Before adding substrate to the reaction chamber, oxygen scavenging reagents were added (10 nM protocatechuate-3,4-dioxygenase, 2.5 mM protocatechuic acid, and 1 mM Trolox)[41]. A detailed description of the SMOR analysis pipeline is found in Supplementary Note 1.

APC/C [3] = conditions: APC/C^Cdc20 vs APC/C^Cdh1; cited from earlier work
Excerpt: We find that the yeast securin ...

Molecule	dissociation from the APC/C (in words) (APC/C [1])	aggregation / background (in words) [2]	processivity of ubiquitylation (in words) (APC/C [3])
Cdh1: APC/C activator subunit (protein, UniProt P53197 1-566, looked up) APC/C activator protein CDH1: MSTNLNPFMNNTPSSSPLKGSESKRVSKRPISSSSSASLLSSPSRRSRPSTVYGDRYIPSRTDIDFNSIVSISSMASVPALNPSSTEDQVEYQKERQAHETYNTLLKNELFGEMLSKDTVGSESSIDRIKNTRPSTRGNVHAENTTRHGYELERVSTPPPEAAGLEEFSPHSTPVTPRRLFTSQQDEITRPSSNSVRGASLLTYQQRKGRRLSAASLLQSQFFDSMSPVRPDSKQLLLSPGKQFRQIAKVPYRVLDAPSLADDFYYSLIDWSSTDVLAVALGKSIFLTDNNTGDVVHLCDTENEYTSLSWIGAGSHLAVGQANGLVEIYDVMKRKCIRTLSGHIDRVACLSWNNHVLTSGSRDHRILHRDVRMPDPFFETIESHTQEVCGLKWNVADNKLASGGNDNVVHVYEGTSKSPILTFDEHKAAVKAMAWSPHKRGVLATGGGTADRRLKIWNVNTSIKMSDIDSGSQICNMVWSKNTNELVTSHGYSKYNLTLWDCNSMDPIAILKGHSFRVLHLTLSNDGTTVVSGAGDETLRYWKLFDKPKAKVQPNSLIFDAFNQIR	dissociation from the APC/C was not detected in 30 min	–	–
securin: separase inhibitor securin, APC/C substrate protein (protein, UniProt P40316 1-373, looked up) Securin: MMPANEDKENNIVYTGNESSGINFPQTPAHLLKRSHSNILKPPVRLDQLKRDANSNNGNTLKYIQGGKEVSPTKRLHTHAQQQGRLPLAAKDNNRSKSFIFPETSNQSKDADLPQLQNTLSIRKNDQLRKLSQISRSRSRANHNDLLSNSRKLQKYGSVLGYNALPKMKSLVLKDLADSGKNEESSDDDEGNEDSESKLGKKLQSALLKQDSSDGENELNGGLGLFNEQGGLQQLIKNSTKNEQKTKNDKSDKTDDYDIEIAPQRQEPLPYVPEGYSPFQQDDIEKLKTFNSPYKLDLEDEDDTPDKVDLLPLEQIDEEGEKDETECITRNQEEGAALPLLSKNFKEVAAVPTMELVYSEEGLDPEELEDLVT	–	tendency to aggregate and create excessive background fluorescence	more processive than that with APC/C^Cdh1
Clb5: yeast S-phase cyclin, APC/C substrate protein (protein, UniProt P30283 1-435, looked up) S-phase entry cyclin-5: MGENHDHEQSIKRNSMIYNENERQLCNSNLKILQNKRALSKNDSSSKQQVQDSKPRRALTDVPVNNNPLSQNKRIVAGSKAAKVRREENIRPIVSAVQKRQIYNDRTAAEQEEEEEEEGEDDDAASIVNKKRRIDAEGVSEIVGWQDLDYVEKDDTAMVAEYSAEIFAFLYRRELETLPSHNYLLDKTSKYYLRPSMRTILVDWLVEVHEKFQCYPETLFLSINLMDRFLAKNKVTMNKLQLLAVTSLFIAAKFEEVNLPKLAEYAYITDGAASKNDIKNAEMFMLTSLEFNIGWPNPLNFLRRISKADDYDPVNRNIGKFILEYAYCCHQFIHLPPSTVSAMAMYIARRMTNRNKNELWNGTLQHYSGGIDPIHDEAFQSLCIDLVKDIASSKTHLDSLILKYKKPRYGSVYFQTFKWCTSEMHSNFQNLFNLK	–	–	more processive than that with APC/C^Cdh1
